Assay results as given in paper PMC3808318, “A type III ACC synthase, ACS7, is involved in root gravitropism in Arabidopsis thaliana” (Journal of Experimental Botany, 2013).

Tests used:
[1] = biological target: T1, AtCDPK16 (G-AtCDPK16-6His) (Arabidopsis thaliana, UniProt Q7XJR9, S274A/S541A); assay: in vitro kinase assay, […] autoradiography; format: biochemical; conditions: 50 μM ATP spiked with [γ-32P]ATP, labelled compound; AtACS7 fusion protein and peptides as phosphoacceptors; room temperature, 15 min
T1 construct: gene CPK16; recombinant from E. coli, N-terminal G (GST) and C-terminal 6His tags, about 100 kDa with tags
T1 sequence (Q7XJR9 1-571 S274A/S541A): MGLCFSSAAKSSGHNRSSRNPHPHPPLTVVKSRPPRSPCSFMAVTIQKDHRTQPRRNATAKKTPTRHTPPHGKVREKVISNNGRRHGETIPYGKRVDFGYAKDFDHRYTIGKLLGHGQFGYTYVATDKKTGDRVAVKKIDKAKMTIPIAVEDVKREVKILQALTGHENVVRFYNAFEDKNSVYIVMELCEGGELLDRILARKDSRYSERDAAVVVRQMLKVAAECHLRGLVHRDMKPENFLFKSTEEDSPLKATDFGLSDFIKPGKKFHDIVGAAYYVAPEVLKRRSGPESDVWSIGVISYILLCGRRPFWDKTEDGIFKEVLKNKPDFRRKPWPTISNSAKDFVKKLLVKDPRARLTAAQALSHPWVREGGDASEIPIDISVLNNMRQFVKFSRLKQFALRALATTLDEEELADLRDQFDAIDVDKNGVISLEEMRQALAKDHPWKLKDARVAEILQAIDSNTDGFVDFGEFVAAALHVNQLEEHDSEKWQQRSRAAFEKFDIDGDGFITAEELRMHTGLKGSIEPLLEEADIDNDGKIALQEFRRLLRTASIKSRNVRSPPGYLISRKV

[2] = biological target: T2, AtCDPK16 (G-AtCDPK16-6His) (Arabidopsis thaliana, UniProt Q7XJR9); assay: in vitro kinase assay, […] autoradiography; format: biochemical; conditions: 50 μM ATP spiked with [γ-32P]ATP, labelled compound; 6His-SUMO-AtACS7 as phosphoacceptor; Ca2+ dependent (shown with peptides P5-2 and P11-2); room temperature, 15 min
T2 construct: gene CPK16; recombinant from E. coli, N-terminal G (GST) and C-terminal 6His tags, about 100 kDa with tags
T2 sequence (Q7XJR9 1-571): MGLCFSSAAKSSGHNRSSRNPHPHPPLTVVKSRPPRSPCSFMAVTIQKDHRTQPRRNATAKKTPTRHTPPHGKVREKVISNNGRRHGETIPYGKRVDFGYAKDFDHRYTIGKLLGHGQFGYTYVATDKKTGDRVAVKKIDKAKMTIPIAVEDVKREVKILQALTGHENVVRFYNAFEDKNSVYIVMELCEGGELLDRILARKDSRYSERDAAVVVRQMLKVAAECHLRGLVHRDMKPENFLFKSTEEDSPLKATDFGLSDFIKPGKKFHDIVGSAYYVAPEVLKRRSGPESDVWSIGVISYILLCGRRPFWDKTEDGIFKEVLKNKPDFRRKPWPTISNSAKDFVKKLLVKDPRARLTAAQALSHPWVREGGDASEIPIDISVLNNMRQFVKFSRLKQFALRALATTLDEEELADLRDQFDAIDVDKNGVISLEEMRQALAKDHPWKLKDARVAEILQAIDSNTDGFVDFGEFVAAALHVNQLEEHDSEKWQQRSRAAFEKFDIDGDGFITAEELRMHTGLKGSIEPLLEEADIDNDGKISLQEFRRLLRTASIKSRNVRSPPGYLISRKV

14-3-3ω = 14-3-3ω (UniProt Q01525); assay: quartz crystal microbalance (QCM); conditions: reference: untreated 6His-SUMO-ACS7; sites S216,T296,S299
[3] = biological target: T3, phosphorylated 6His-SUMO–ACS7 (phosphorylated by CDPK16 in vitro in advance) (Arabidopsis thaliana, UniProt Q9STR4 1-447, phosphorylated by CDPK16 in vitro; the sites that the paper identifies with fusion peptides are Ser216, Thr296 and Ser299); assay: quartz crystal microbalance (QCM); AFFINIX QN μ, PBS buffer; results: G-14-3-3ω coated on the sensor and 6His-SUMO–ACS7 injected (the methods tell the reverse order); conditions: both partners purified
T3 construct: 1-aminocyclopropane-1-carboxylate synthase 7 (AtACS7), Arabidopsis thaliana; the full-length ACS7 recombinant protein; source: E. coli, purified (Ni-NTA), then phosphorylated by CDPK16 in vitro
T3 sequence (looked up): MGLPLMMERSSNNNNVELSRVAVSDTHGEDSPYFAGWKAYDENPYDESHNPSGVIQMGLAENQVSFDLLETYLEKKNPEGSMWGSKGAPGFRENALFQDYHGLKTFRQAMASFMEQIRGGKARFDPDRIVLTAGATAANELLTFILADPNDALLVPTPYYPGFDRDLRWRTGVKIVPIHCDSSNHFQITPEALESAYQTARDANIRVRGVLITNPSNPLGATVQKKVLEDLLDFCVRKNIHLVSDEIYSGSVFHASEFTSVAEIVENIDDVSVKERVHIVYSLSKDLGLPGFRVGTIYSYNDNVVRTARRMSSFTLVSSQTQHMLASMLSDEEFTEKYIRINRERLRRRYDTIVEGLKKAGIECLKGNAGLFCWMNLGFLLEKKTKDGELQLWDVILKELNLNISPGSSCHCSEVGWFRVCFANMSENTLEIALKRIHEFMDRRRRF

[4] = biological target: T4, 6His-SUMO–AtACS7 recombinant protein (Arabidopsis thaliana, UniProt Q9STR4 1-447); assay: as above; conditions: both partners purified
T4 construct: 1-aminocyclopropane-1-carboxylate synthase 7 (AtACS7), Arabidopsis thaliana; called the full-length ACS7 recombinant protein; The printed name puts 6His and SUMO before ACS7; also called 6His-SUMO–ACS7; SUMO–ACS7; source: E. coli, purified (Ni-NTA)
T4 sequence (looked up): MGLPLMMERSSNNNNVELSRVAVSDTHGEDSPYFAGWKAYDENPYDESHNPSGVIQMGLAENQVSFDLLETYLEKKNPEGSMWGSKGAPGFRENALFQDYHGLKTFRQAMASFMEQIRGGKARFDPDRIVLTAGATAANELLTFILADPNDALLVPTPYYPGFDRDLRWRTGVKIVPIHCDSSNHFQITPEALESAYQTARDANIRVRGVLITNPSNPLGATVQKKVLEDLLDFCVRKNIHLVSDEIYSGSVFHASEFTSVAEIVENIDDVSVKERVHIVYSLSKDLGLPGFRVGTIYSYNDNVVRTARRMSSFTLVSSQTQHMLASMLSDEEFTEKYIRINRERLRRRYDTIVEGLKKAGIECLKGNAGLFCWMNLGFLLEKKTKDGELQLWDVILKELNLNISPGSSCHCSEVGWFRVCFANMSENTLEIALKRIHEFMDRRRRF

In the case of Nc1ncnc2c1ncn2[C@@H]1O[C@H](COP(=O)(O)OP(=O)(O)OP(=O)(O)O)[C@@H](O)[C@H]1O [ATP], the “in vitro kinase assay, 32P autoradiography” value [1] is reported as “autophosphorylation of the mutated recombinant protein (G-CDPK16-6His MT) was greatly reduced” and the “in vitro kinase assay, 32P autoradiography” value [2] is reported as “CDPK16 can phosphorylate the recombinant protein 6His-SUMO–AtACS7 in vitro”.

In the case of “AtACS7 (ACS7, type III ACC synthase) (from UniProt Q9STR4) 6His-SUMO-ACS7 phosphorylated by CDPK16 in vitro”, the KD (14-3-3ω) is reported as “same; reference 9.29±1.99×10–9”.

B1: G-14-3-3ω recombinant protein (GST-tagged 14-3-3ω) (natural protein, Arabidopsis, UniProt Q01525 1-259, looked up)
chain: MASGREEFVYMAKLAEQAERYEEMVEFMEKVSAAVDGDELTVEERNLLSVAYKNVIGARRASWRIISSIEQKEESRGNDDHVTAIREYRSKIETELSGICDGILKLLDSRLIPAAASGDSKVFYLKMKGDYHRYLAEFKTGQERKDAAEHTLAAYKSAQDIANAELAPTHPIRLGLALNFSVFYYEILNSPDRACNLAKQAFDEAIAELDTLGEESYKDSTLIMQLLRDNLTLWTSDMQDDAADEIKEAAAPKPTEEQQ
notes: 14-3-3ω (14-3-3 omega), Arabidopsis; The printed name puts G (GST) before 14-3-3ω; also called 14-3-3ω protein; source: E. coli, purified (GST beads, glutathione elution)
B1 showed a Kd [3] of 5.05 nM and a Kd [4] of 9.29 nM.
